The data set concerns the target T1, endogenous rat mitochondrial aldehyde dehydrogenase (ALDH2) of H4-II-E-C3 hepatoma cells, P11884.
T1 chain: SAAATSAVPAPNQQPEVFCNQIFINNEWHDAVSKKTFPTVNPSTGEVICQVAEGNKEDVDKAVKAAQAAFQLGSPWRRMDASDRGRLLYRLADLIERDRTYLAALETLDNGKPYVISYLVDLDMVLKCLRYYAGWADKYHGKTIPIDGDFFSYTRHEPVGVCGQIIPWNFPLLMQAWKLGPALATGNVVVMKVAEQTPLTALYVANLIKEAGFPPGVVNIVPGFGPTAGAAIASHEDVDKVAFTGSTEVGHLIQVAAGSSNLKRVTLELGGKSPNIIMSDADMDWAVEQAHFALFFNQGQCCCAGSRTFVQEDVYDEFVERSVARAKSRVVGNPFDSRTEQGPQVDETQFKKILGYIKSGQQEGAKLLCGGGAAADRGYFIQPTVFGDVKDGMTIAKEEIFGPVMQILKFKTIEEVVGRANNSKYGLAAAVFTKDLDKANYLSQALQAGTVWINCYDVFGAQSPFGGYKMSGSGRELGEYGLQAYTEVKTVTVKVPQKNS

B1: human ALDH2-2 (mutant) monomer, expressed from the retroviral vector pLHCK3'UT in rat hepatoma H4-II-E-C3 cells (protein)
chain: SAAATQAVPAPNQQPEVFCNQIFINNEWHDAVSRKTFPTVNPSTGEVICQVAEGDKEDVDKAVKAARAAFQLGSPWRRMDASHRGRLLNRLADLIERDRTYLAALETLDNGKPYVISYLVDLDMVLKCLRYYAGWADKYHGKTIPIDGDFFSYTRHEPVGVCGQIIPWNFPLLMQAWKLGPALATGNVVVMKVAEQTPLTALYVANLIKEAGFPPGVVNIVPGFGPTAGAAIASHEDVDKVAFTGSTEIGRVIQVAAGSSNLKRVTLELGGKSPNIIMSDADMDWAVEQAHFALFFNQGQCCCAGSRTFVQEDIYDEFVERSVARAKSRVVGNPFDSKTEQGPQVDETQFKKILGYINTGKQEGAKLLCGGGIAADRGYFIQPTVFGDVQDGMTIAKEEIFGPVMQILKFKTIEEVVGRANNSTYGLAAAVFTKDLDKANYLSQALQAGTVWVNCYDVFGAQSPFGGYKMSGSGRELGEYGLQAYTKVKTVTVKVPQKNS
Consider B1, for which the ALDH2 specific activity of ALDH2-2 transduced H4 clones (lower end of range) (nanomoles/minute/milligram protein) was 15; the ALDH2 specific activity of ALDH2-2 transduced H4 clones (mean ± SEM, N=22) (nanomoles/minute/milligram protein) is 40.4; the ALDH2 specific activity of ALDH2-2 transduced H4 clones (upper end of range) (nanomoles/minute/milligram protein) was found to be 54; the “reduction in hepatocyte ALDH2 activity” value is reported as “leads to a >60% reduction in hepatocyte ALDH2 activity”.

B2: human ALDH2-1 (wild-type) monomer, expressed from the retroviral vector pLNCE in rat hepatoma H4-II-E-C3 cells (protein)
chain: SAAATQAVPAPNQQPEVFCNQIFINNEWHDAVSRKTFPTVNPSTGEVICQVAEGDKEDVDKAVKAARAAFQLGSPWRRMDASHRGRLLNRLADLIERDRTYLAALETLDNGKPYVISYLVDLDMVLKCLRYYAGWADKYHGKTIPIDGDFFSYTRHEPVGVCGQIIPWNFPLLMQAWKLGPALATGNVVVMKVAEQTPLTALYVANLIKEAGFPPGVVNIVPGFGPTAGAAIASHEDVDKVAFTGSTEIGRVIQVAAGSSNLKRVTLELGGKSPNIIMSDADMDWAVEQAHFALFFNQGQCCCAGSRTFVQEDIYDEFVERSVARAKSRVVGNPFDSKTEQGPQVDETQFKKILGYINTGKQEGAKLLCGGGIAADRGYFIQPTVFGDVQDGMTIAKEEIFGPVMQILKFKTIEEVVGRANNSTYGLAAAVFTKDLDKANYLSQALQAGTVWVNCYDVFGAQSPFGGYKMSGSGRELGEYGLQAYTEVKTVTVKVPQKNS
Consider B2, for which the ALDH2 specific activity of ALDH2-1 transduced H4 clones (lower end of range) (nanomoles/minute/milligram protein) amounted to 42; the ALDH2 specific activity of ALDH2-1 transduced H4 clones (mean ± SEM, N=15) (nanomoles/minute/milligram protein) amounted to 54.7; the ALDH2 specific activity of ALDH2-1 transduced H4 clones (upper end of range) (nanomoles/minute/milligram protein) came out at 78; the “increase of ALDH activity relative to the empty vector control group” value is “ALDH activity was increased by as much as 52% in some ALDH2-1 transduced clones”.

Source of the values: US20030032788.
